The labels stand for the following.
B1: Twister Ribozyme (parent)
chain: AACACUGCCAAUGCCGGUCCCAAGCCCGGAUAAAAGUGGAGGGGGCGG

The variants in the series derive from B1. Put plainly: self-cleavage, relative activity (ratio to wild type); higher = more cleavage; co-transcriptional.
In the case of AUCACUUCCAAUGCCGGUCCCAAGCCCGGAUAAAAGUGGAGGGGGCGG [A2U G7U], the self-cleavage is 0.0853.
In the case of AUCACUACCAAUGCCGGUCCCAAGCCCGGAUAAAAGUGGAGGGGGCGG [A2U G7A], the self-cleavage was 0.0893.
For the variant AAAACUGACAAUGCCGGUCCCAAGCCCGGAUAAAAGUGGAGGGGGCGG [C3A C8A], the self-cleavage amounted to 0.116.
Turning to AAAACUGGCAAUGCCGGUCCCAAGCCCGGAUAAAAGUGGAGGGGGCGG [C3A C8G], the self-cleavage was 0.0742.
In the case of AAAACUGUCAAUGCCGGUCCCAAGCCCGGAUAAAAGUGGAGGGGGCGG [C3A C8U], the self-cleavage amounted to 0.122.
The result for AUCACUGCCAAUGCCGGUCACAAGCCCGGAUAAAAGUGGAGGGGGCGG [A2U C20A] reads 0.08.
For AUCACUGCCAAUGCCGGUCUCAAGCCCGGAUAAAAGUGGAGGGGGCGG [A2U C20U], the self-cleavage was 0.3.
For the variant AGCACUGCCAAUGCCGGUCCCAAGCCCGGAUAAAAGUGGAGGGGGCCG [A2G G47C], the self-cleavage turned out to be 0.212.
For the variant AAAGCUGCCAAUGCCGGUCCCAAGCCCGGAUAAAAGUGGAGGGGGCGG [C3A A4G], the self-cleavage turned out to be 0.102.
As to AAAACUGCCAAUGCCGGUCCCAAGCCCGGUUAAAAGUGGAGGGGGCGG [C3A A30U], the self-cleavage worked out at 0.184.
The result for AUCACUGCCAAUUCCGGUCCCAAGCCCGGAUAAAAGUGGAGGGGGCGG [A2U G13U] reads 0.103; that for AUCACUGCCAAUCCCGGUCCCAAGCCCGGAUAAAAGUGGAGGGGGCGG [A2U G13C], 0.0514.
Regarding AUCACUGCCAAUACCGGUCCCAAGCCCGGAUAAAAGUGGAGGGGGCGG [A2U G13A], the self-cleavage was 0.153.
In the case of AAAACUGCCAAUGCCGGUUCCAAGCCCGGAUAAAAGUGGAGGGGGCGG [C3A C19U], the self-cleavage amounted to 0.153.
AAAACUGCCAAUGCCGGUACCAAGCCCGGAUAAAAGUGGAGGGGGCGG [C3A C19A]: the self-cleavage was 0.0415.
Regarding AUCACUGCCAACGCCGGUCCCAAGCCCGGAUAAAAGUGGAGGGGGCGG [A2U U12C], the self-cleavage was 0.732.
AGCACUGCCAAUGCCGGUCCCAAGCCCGGAUAAAAGUGGAGGGGUCGG [A2G G45U]: the self-cleavage worked out at 0.159.
The result for AGCACUGCCAAUGCCGGUCCCAAGCCCGGAUAAAAGUGGAGGGGACGG [A2G G45A] reads 0.338; that for AGCACUGCCAAUGCCGGUCCCAAGCCCGGAUAAAAGUGGAGUGGGCGG [A2G G42U], 0.11; that for AUCACUGCCAAUGGCGGUCCCAAGCCCGGAUAAAAGUGGAGGGGGCGG [A2U C14G], 0.0946.
In the case of AUCACUGCCAAUGUCGGUCCCAAGCCCGGAUAAAAGUGGAGGGGGCGG [A2U C14U], the self-cleavage stood at 0.591.
Consider AAAACUGCCAAUGCCGGUCCCAUGCCCGGAUAAAAGUGGAGGGGGCGG [C3A A23U], for which the self-cleavage was determined as 0.133.
On to AAAACUGCCAAUGCCGGUCCCAGGCCCGGAUAAAAGUGGAGGGGGCGG [C3A A23G], for which the self-cleavage is 0.0731.
In the case of AUCACUGCCAAUGCCGGCCCCAAGCCCGGAUAAAAGUGGAGGGGGCGG [A2U U18C], the self-cleavage turned out to be 0.147.
For AAAACUGCCAAUGCCGGUCCCUAGCCCGGAUAAAAGUGGAGGGGGCGG [C3A A22U], the self-cleavage turned out to be 0.127.
As to AAAACUGCCAAUGCCGGUCCGAAGCCCGGAUAAAAGUGGAGGGGGCGG [C3A C21G], the self-cleavage came out at 0.0514.
For the variant AAAACUGCCAAUGCCGGUCCUAAGCCCGGAUAAAAGUGGAGGGGGCGG [C3A C21U], the self-cleavage was found to be 0.0858.
AGCACUGCCAAUGCCGGUCCCAAGCCCGGAUAAAAGUGGAGGGGGCGA [A2G G48A]: the self-cleavage came out at 0.217.
In the case of AUCACUGCCAAUGCCGGUCCCAAGCCCGGAUAAUAGUGGAGGGGGCGG [A2U A34U], the self-cleavage was found to be 0.189.
The result for AUCACUGCCAAUGCCGGUCCCAAGCCCGGAUAACAGUGGAGGGGGCGG [A2U A34C] reads 0.15.
The result for AUCACUGCCAAUGCCGGUCCCAAGCCCGGAUAAAAGUGAAGGGGGCGG [A2U G39A] reads 0.12; that for AAAACUGCGAAUGCCGGUCCCAAGCCCGGAUAAAAGUGGAGGGGGCGG [C3A C9G], 0.217.
Take AAAACUGCAAAUGCCGGUCCCAAGCCCGGAUAAAAGUGGAGGGGGCGG [C3A C9A]: the self-cleavage was determined as 0.155.
Take AUCACUGCCAAUGCCGGUCCCAAGCCCCGAUAAAAGUGGAGGGGGCGG [A2U G28C]: the self-cleavage was found to be 0.533.
The result for AUCACUGCCAAUGCCGGUCCCAAGCCCAGAUAAAAGUGGAGGGGGCGG [A2U G28A] reads 0.409; that for AUCACUGCCAGUGCCGGUCCCAAGCCCGGAUAAAAGUGGAGGGGGCGG [A2U A11G], 0.586; that for AUCCCUGCCAAUGCCGGUCCCAAGCCCGGAUAAAAGUGGAGGGGGCGG [A2U A4C], 0.0829.
As to AAAACUGCCAAUGUCGGUCCCAAGCCCGGAUAAAAGUGGAGGGGGCGG [C3A C14U], the self-cleavage worked out at 0.176.
Take AAAACUGCCAAUGACGGUCCCAAGCCCGGAUAAAAGUGGAGGGGGCGG [C3A C14A]: the self-cleavage worked out at 0.15.
For AUCACUGCCAAUGCCGGUCCCAAGCCCGGAUAAAAGUGGAGGCGGCGG [A2U G43C] the value was 0.137.
For AUCACUGCCAAUGCCGGUCCCAAGCCCGGAUAAAAGUGGAGGUGGCGG [A2U G43U] the value was 0.139.
As for AAAACUGCCAAUGCCGGUCUCAAGCCCGGAUAAAAGUGGAGGGGGCGG [C3A C20U], the self-cleavage amounted to 0.403.
On to AUCACUGCCAAUGCCGGUCCCAAGCCCGGAUAAAAAUGGAGGGGGCGG [A2U G36A], for which the self-cleavage came out at 0.158.
On to AUCACUGCCAAUGCCGGUCCCAAGCCCGGAUAAAAUUGGAGGGGGCGG [A2U G36U], for which the self-cleavage was 0.113.
The result for AAAACUGCCAAUGCCGGUCCCAAGUCCGGAUAAAAGUGGAGGGGGCGG [C3A C25U] reads 0.16; that for AGCACUGCCAAUGCCGGUCCCAAGCCCGGAUAAAAGUGGAGGGUGCGG [A2G G44U], 0.215.
On to AGCACUGCCAAUGCCGGUCCCAAGCCCGGAUAAAAGUGGAGGGAGCGG [A2G G44A], for which the self-cleavage came out at 0.316.
With AGCACUGCCAAUGCCGGUCCCAAGCCCGGAUAAAAGUGGAGGGCGCGG [A2G G44C], the self-cleavage turned out to be 0.212.
For the variant AUCACUGACAAUGCCGGUCCCAAGCCCGGAUAAAAGUGGAGGGGGCGG [A2U C8A], the self-cleavage came to 0.078.
Take AUCACUGCCAAUGCCGGUCCCAAGCCCGGAUAAAAGUGGAGGGGGUGG [A2U C46U]: the self-cleavage came out at 0.723.
Consider AUCACUGCCAAUGCCGGUCCCAAGCCCGGAUAAAAGUGGAGGGGGAGG [A2U C46A], for which the self-cleavage amounted to 0.513.
With AUCACUGCGAAUGCCGGUCCCAAGCCCGGAUAAAAGUGGAGGGGGCGG [A2U C9G], the self-cleavage is 0.119.
The result for AAAACUGCCAAUGCCGGUCCCAAGCCCGGAUACAAGUGGAGGGGGCGG [C3A A33C] reads 0.147; that for AAAACUGCCAAUGCCGGUCCCAAGCCCGGAUAUAAGUGGAGGGGGCGG [C3A A33U], 0.203.

The values above are taken from the RNAGym collection of RNA variant scans (doi:10.7554/elife.80360).
